In patent US8034355:

Target: VSV L protein (wild type, rVSV) (Vesicular stomatitis Indiana virus) (UniProt P03523)
Details: 5' Gppp cap (7mGpppAm when fully methylated)

UniProt P03523, sequence (P03523 whole entry): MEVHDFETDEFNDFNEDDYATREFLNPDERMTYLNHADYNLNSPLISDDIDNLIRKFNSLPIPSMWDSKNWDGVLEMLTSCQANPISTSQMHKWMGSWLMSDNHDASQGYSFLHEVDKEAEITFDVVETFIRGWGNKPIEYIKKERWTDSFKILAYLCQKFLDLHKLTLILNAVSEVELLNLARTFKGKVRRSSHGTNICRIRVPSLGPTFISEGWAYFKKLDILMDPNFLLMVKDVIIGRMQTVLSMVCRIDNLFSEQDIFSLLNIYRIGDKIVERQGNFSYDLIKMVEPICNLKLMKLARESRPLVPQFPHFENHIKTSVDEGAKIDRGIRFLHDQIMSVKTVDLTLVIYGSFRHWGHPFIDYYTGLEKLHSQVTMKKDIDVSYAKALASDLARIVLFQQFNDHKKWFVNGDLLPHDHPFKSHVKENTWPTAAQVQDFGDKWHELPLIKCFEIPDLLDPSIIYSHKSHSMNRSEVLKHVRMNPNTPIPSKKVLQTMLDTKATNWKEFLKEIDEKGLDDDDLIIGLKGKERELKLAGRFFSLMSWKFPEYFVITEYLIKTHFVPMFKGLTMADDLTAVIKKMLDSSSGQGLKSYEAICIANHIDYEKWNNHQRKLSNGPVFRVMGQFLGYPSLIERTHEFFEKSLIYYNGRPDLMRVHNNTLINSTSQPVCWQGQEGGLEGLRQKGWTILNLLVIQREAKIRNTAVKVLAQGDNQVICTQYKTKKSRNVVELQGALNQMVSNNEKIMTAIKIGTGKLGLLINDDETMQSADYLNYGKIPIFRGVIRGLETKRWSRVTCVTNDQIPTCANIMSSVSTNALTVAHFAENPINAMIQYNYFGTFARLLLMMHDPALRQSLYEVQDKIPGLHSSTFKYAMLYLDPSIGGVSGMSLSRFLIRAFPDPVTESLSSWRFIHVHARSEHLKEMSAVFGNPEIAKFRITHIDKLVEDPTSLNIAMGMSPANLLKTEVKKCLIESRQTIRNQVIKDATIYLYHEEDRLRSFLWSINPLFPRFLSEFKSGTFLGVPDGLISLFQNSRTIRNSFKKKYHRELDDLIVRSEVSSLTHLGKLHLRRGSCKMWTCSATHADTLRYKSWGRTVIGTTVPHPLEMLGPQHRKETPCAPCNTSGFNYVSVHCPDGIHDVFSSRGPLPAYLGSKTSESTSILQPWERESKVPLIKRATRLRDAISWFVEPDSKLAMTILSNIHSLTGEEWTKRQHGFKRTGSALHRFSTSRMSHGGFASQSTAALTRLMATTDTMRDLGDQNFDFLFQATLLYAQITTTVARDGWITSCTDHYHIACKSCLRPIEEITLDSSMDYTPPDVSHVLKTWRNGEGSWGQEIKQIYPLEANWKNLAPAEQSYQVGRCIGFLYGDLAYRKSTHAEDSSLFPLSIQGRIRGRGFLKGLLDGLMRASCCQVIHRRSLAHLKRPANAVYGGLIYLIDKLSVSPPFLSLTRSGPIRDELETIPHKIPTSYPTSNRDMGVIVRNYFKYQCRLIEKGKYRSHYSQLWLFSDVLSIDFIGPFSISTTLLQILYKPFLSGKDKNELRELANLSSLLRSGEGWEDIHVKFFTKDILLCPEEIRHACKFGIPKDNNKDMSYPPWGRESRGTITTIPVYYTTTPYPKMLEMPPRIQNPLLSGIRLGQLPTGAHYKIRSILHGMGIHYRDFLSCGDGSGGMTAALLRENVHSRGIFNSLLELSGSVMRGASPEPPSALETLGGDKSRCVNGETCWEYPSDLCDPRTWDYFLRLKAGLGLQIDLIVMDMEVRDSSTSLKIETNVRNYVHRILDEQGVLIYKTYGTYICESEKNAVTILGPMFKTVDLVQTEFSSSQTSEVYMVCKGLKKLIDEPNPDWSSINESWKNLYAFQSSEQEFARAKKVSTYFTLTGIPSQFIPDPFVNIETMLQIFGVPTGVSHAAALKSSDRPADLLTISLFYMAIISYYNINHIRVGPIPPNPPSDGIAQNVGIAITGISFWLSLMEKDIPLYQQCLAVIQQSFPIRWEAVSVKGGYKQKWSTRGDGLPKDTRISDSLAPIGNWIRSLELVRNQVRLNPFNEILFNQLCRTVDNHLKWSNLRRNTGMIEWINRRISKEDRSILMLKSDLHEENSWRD

With AACAG the activity (% 7mGp of released cap) was 97.
